According to patent US9550980B2, “Composition and methods for the production of L-homoalanine” (The Regents of the University of California, priority 2010, dated 2017):

Columns and labels:
[1] = Enzymatic assay of purified glutamate dehydrogenases, amination of 2-ketobutyrate (NADPH consumption at 340 nm); type: biochemical
Method: To characterize the enzymes, both the wild-type glutamate dehydrogenase GDHwt and mutant GDH2 were added an N-terminal 6×His-tag, overexpressed, and purified through Ni-NTA columns. The kinetic parameters for […] of 2-ketoglutarate (cognate substrate) and 2-ketoisovalerate or 2-ketobutyrate (nonnatural substrates) were determined by monitoring the consumption of NADPH at 340 nm (FIG. 6). […] The increase in binding affinity is very helpful since high concentration of 2-ketobutyrate interferes with cellular metabolic activities (see, e.g. Daniel et al. (1983) Mol Gen Genet 190(3):452-458). On the basis of the crystallographic model for the active site of GDH, amino group of K92 hydrogenbonds to the γ-carboxyl group of 2-ketoglutarate and determines the substrate specificity (see, e.g. Stillman et al. (1993) J Mol Biol 234(4):1131-1139). Mutation of lysine to valine increases the hydrophobic character of the binding pocket, which explains why the specificity constant kcat/Km of GDH2 towards 2-ketobutyrate is 50-fold higher than that towards the natural substrate 2-ketoglutarate.
Both gene fragments encoding wildtype glutamate dehydrogenase and GDH2 were amplified using primers GDHbamfwd and GDHbamrev. After digestion with BamHI, the gene fragments were inserted into expression plasmid pQE9 (Qiagen). The resulting expression plasmids were transformed into E. coli strain BL21(DE3) harboring pREP4 (Qiagen). Cells were inoculated from an overnight preculture at 1/100 dilution and grown in 200 mL 2XYT rich medium containing 50 mg/L ampicillin and 25 mg/L kanamycin. At an OD600 of 0.6, recombinant proteins were expressed by induction of the cell cultures with 0.1 mM IPTG, followed by incubation at 30° C. overnight. Overexpressed proteins were then purified with Ni-nitrilotriacetic acid columns. Protein concentration was determined by measuring UV absorbance at 280 nm.
(§1) Enzymatic assay was performed in assay buffer (100 mM Tris buffer, pH 8.0) containing 0.2M NH4Cl, 0.2 mM NADPH, and various concentrations of 2-ketoacids. The reactions were started by adding the purified enzymes, and the consumption of NADPH was monitored at 340 nm (extinction coefficient, 6.22 mM^−1 cm^−1). Kinetic parameters (kcat and Km) were determined by fitting initial velocity data to the Michaelis-Menten equation using Origin.

[2] = Enzymatic assay of purified glutamate dehydrogenases, amination of 2-ketoglutarate (NADPH consumption at 340 nm); type: biochemical
Method: (§2) To characterize the enzymes, both the wild-type glutamate dehydrogenase GDHwt and mutant GDH2 were added an N-terminal 6×His-tag, overexpressed, and purified through Ni-NTA columns. The kinetic parameters for […] of 2-ketoglutarate (cognate substrate) and 2-ketoisovalerate or 2-ketobutyrate (nonnatural substrates) were determined by monitoring the consumption of NADPH at 340 nm (FIG. 6). […] The increase in binding affinity is very helpful since high concentration of 2-ketobutyrate interferes with cellular metabolic activities (see, e.g. Daniel et al. (1983) Mol Gen Genet 190(3):452-458). […]
(§3) Both gene fragments encoding wildtype glutamate dehydrogenase and GDH2 were amplified using primers GDHbamfwd and GDHbamrev. […] Protein concentration was determined by measuring UV absorbance at 280 nm.
as §1

[3] = Enzymatic assay of purified glutamate dehydrogenases, amination of 2-ketoisovalerate (NADPH consumption at 340 nm); type: biochemical
Method: as §2, §3, §1

2-ketobutyrate = experiment: Conversion of fed 2-ketobutyrate to L-homoalanine by E. coli BW25113 overexpressing amination enzymes; type: cell-based, Escherichia coli; design: L-homoalanine produced: unit not given here
Method: FIG. 2 is a graph comparing different amination enzymes on the production of L-homoalanine. E. coli cultures were inoculated in M9 medium with addition of 10 g/L 2-ketobutyrate and incubated at 37° C. for 24 h. The horizontal axis labels are defined as follows: (A) Wild-type E. coli BW25113; overexpression of (B) transaminase IlvE (C) valine dehydrogenase from Streptomyces avermitilis; (D) valine dehydrogenase from Streptomyces coelicolor, (E) valine dehydrogenase from Streptomyces fradiae; (F) evolved glutamate dehydrogenase GDH1; and (G) evolved glutamate dehydrogenase GDH2. The error bars represent standard deviations from three independent experiments.
In order to check if any endogenous transaminase of E. coli can work on 2-ketobutyrate, we fed 10 g/L 2-ketobutyrate to wildtype E. coli strain BW25113 growing in M9 medium. […] Since the branched-chain amino acid aminotransferase IlvE (see, e.g. Inoue K, et al. (1988) J Biochem 104(5):777-784) is likely to be a functional candidate, we cloned and overexpressed IlvE in BW25113, which increased the production of L-homoalanine to […] (FIG. 2B). […] However, high concentration of glutamate is needed to drive the reaction equilibrium because transamination is a reversible reaction process. Even under such extreme conditions, the conversion rate of transaminating 2-ketobutyrate to L-homoalanine is only 32%.
To test the conversion of 2-ketobutyrate to L-homoalanine, plasmids pZElac_IlvE, pZElac_VDHsa, pZElac_VDHsc, pZElac_VDHsf, pZElac_GDH and pZElac_GDH2 were transformed into BW25113. The transformants were inoculated in M9 medium with 5 g/L yeast extract, 10 g/L ammonium hydrochloride and 20 g/L glucose. Once OD reached ˜1.0, 10 g/L 2-ketobutyrate plus 0.1 mM IPTG were added and incubated at 37° C. for 24 h. Amino acids were quantified as o-phthaldialdehyde (OPA) derivatives by HPLC analysis.

[4] = system: valine auxotrophic E. coli (ΔavtA, ΔilvE); experiment: Growth rescue of valine auxotrophic E. coli (ΔavtA, ΔilvE) in M9 minimal medium; type: cell-based, Escherichia coli; conditions: absence of valine
Text: FIG. 4A illustrates a binding pocket of Clostridium symbiosum glutamate dehydrogenase (PDB: 1BGV) complexed with its natural substrate glutamate. Residues K89, T193, V377, and S380 are within a radius of 6 Å of the γ-carbon of glutamate. […] The binding pocket is conserved, and the corresponding residues of E. coli GDH are K92, T195, V377, and S380. These residues were subjected to site-saturation mutagenesis with randomized NNK codon. A library size of 2 million members was transformed into valine auxotrophic E. coli and selected for mutants growing in M9 minimal medium. FIG. 4C is a graph showing the growth curve of E. coli (AavtA, AilvE) transformants in minimal medium. −Val means absence of valine. +Val means presence of valine. Or cells are transformed with GDH1 (K92L, T195A, V377A, and S380C mutations) or GDH2 (K92V and T195S mutations) mutant.
To this end, we have developed a selection strategy to evolve GDH. Deletion of transaminase genes avtA and ilvE from the chromosome makes wild-type E. coli valine auxotrophic (see, e.g. Wang et al. (1987) J Bacteriol 169(9):4228-4234), whose growth in minimal medium can be rescued by a mutant GDH active on aminating the valine precursor 2-ketoisovalerate (FIG. 3B). […]

threonine = experiment: Production of L-homoalanine from glucose by E. coli overexpressing GDH2 and threonine dehydratases; type: cell-based, Escherichia coli; conditions: overexpression in BW25113
Text: FIG. 5A is a graph with horizontal axis labels defined as follows: (1) BW25113; (2) BW25113 with overexpression of GDH2; (3) ATCC98082 with overexpression of TdcB & GDH2; (4) ATCC98082 with overexpression of IlvAEc & GDH2; (5) ATCC98082 with overexpression of IlvABS & GDH2; and (6) ATCC98082 (ArhtA) with overexpression of IlvABS and GDH2. FIG. 5B is a graph showing the yield of L-homolalanine biosynthesis from glucose. The error bars represent standard deviations from three independent experiments.
To test the production of L-homoalanine from glucose, E. coli strain ATCC98082 harboring plasmid pZS_thrO (see, e.g. Zhang et al. (2008) Proc Natl Acad Sci USA 105(52):20653-20658) was transformed with pZElac_tdcB_GDH, pZElac_ilvAEC_GDH and pZElac_ilvABS_GDH. These transformants were subjected to fermentation using the following production medium: 30 g glucose, 17 g (NH4)2SO4, 2 g KH2PO4, 1 g MgSO4.7H2O, 2 g yeast extract, 0.1 g L-valine, 0.01 g FeSO4:7H2O and 0.01 g MnSO4:7H2O per liter. Antibiotics were added appropriately (ampicillin 50 mg/L, spectinomycin 25 mg/L). Overnight 2XYT culture were diluted 25× into fermentation medium and 0.1 mM isopropyl-b-D-thiogalactoside (IPTG) was added to induce protein expression. In shake flask experiments, the culture medium was buffered by addition of 30 g/L CaCO3. Cultures were incubated in 33° C. shaker (250 rpm) for 40-50 h until glucose was consumed.

B1: GDH2: evolved E. coli glutamate dehydrogenase mutant with K92V and T195S mutations (protein, listed as Escherichia coli)
chain: MDQTYSLESFLNHVQKRDPNQTEFAQAVREVMTTLWPFLEQNPKYRQMSLLERLVEPERVIQFRVVWVDDRNQIQVNRAWRVQFSSAIGPYVGGMRFHPSVNLSILKFLGFEQTFKNALTTLPMGGGKGGSDFDPKGKSEGEVMRFCQALMTELYRHLGADTDVPAGDIGVGGREVGFMAGMMKKLSNNTACVFSGKGLSFGGSLIRPEATGYGLVYFTEAMLKRHGMGFEGMRVSVSGSGNVAQYAIEKAMEFGARVITASDSSGTVVDESGFTKEKLARLIEIKASRDGRVADYAKEFGLVYLEGQQPWSLPVDIALPCATQNELDVDAAHQLIANGVKAVAEGANMPTTIEATELFQQAGVLFAPGKAANAGGVATSGLEMAQNAARLGWKAEKVDARLHHIMLDIHHACVEHGGEGEQTNYVQGANIAGFVKVADAMLAQGVI
[1]
  decrease in Km on 2-ketobutyrate compared to GDHwt: 4 fold
  increase in kcat on 2-ketobutyrate compared to GDHwt: 2 fold
[1]; 100 mM Tris pH 8.0, 0.2M NH4Cl, 0.2 mM NADPH
  kcat towards 2-ketobutyrate: 90.2 s⁻¹
[1]; 100 mM Tris pH 8.0, 0.2M NH4Cl, 0.2 mM NADPH, read-out: Km towards 2-ketobutyrate
  Km: 8.4 mM
[1]; 2-ketobutyrate versus natural substrate 2-ketoglutarate
  specificity constant kcat/Km towards 2-ketobutyrate, higher than towards 2-ketoglutarate: 50 fold
[2]
  specificity constant kcat/Km towards 2-ketoglutarate, smaller than that of GDHwt: ~3,000 fold
[3]
  kcat towards 2-ketoisovalerate relative to GDHwt: five times higher kcat than GDHwt
2-ketobutyrate; 10 g/L 2-ketobutyrate fed
  productivity of L-homoalanine: 5.1 g/L/day
2-ketobutyrate; 10 g/L 2-ketobutyrate, no glutamate feeding
  conversion yield of 2-ketobutyrate to L-homoalanine: 50%
2-ketobutyrate; BW25113 transformant, 10 g/L 2-ketobutyrate fed, M9 medium, 37° C., 24 h
  L-homoalanine produced: 5.1
[4]
  rescue of cell growth without valine: successfully rescued the valine auxotrophic phenotype
threonine
  L-homoalanine produced from glucose: 0.1 g/L
